Assay results from FireProtDB.
Where “and” joins values, the source holds several entries; their conditions need not be identical. Identical values can stand only once.

Conditions: for Tm / heat capacity change of unfolding / unfolding enthalpy (calorimetric) / change of melting temperature, mutant - wild type (higher = more stable) / unfolding enthalpy (van 't Hoff): Thermal
[1] = Bos taurus, pH 4.4, DSC, Sodium acetate 25 mM, NaCl 100 mM, reversible: yes
[2] = Bos taurus, pH 4.8, DSC, Sodium acetate 25 mM, NaCl 100 mM, reversible: yes
[3] = Bos taurus, pH 5.3, DSC, Sodium acetate 25 mM, NaCl 100 mM, reversible: yes
[4] = Bos taurus, pH 7.55, DSC, Tris 0.09 M, reversible: yes
[5] = Bos taurus, pH 8, DSC, Sodium acetate 25 mM, NaCl 100 mM, reversible: yes
[6] = Homo sapiens, DSC, 1 X - PBS, Mg2+ 0.5 mM, structure 1AJE
[7] = Thermotoga maritima (strain ATCC 43589 / DSM 3109 / JCM 10099 / NBRC 100826 / MSB8), pH 6.5, 25 °C, GdnHCl, Fluorescence, sodium phosphate 50 mM, NaCl 20 mM, reversible: yes
[8] = Equus caballus, pH 6, 20 °C, GdnHCl, CD, MES 10 mM, NaCl 0.4 M, reversible: yes
[9] = Equus caballus, pH 7, 10 °C, GdnHCl, CD, sodium phosphate 0.1 M, reversible: yes
[10] = Equus caballus, pH 7, 10 °C, GdnHCl, Fluorescence, acetate/phosphate 50 mM/50 mM/
[11] = Equus caballus, pH 7, 22 °C, GdnHCl, Fluorescence, sodium phosphate 0.1 M, reversible: yes
[12] = Equus caballus, pH 7, 23 °C, GdnHCl, SAXS, Phosphate 100 mM, transition: 2
[13] = Equus caballus, pH 7, 25 °C, GdnHCl, DSC, cacodylic acid 0.03 M, NaCl 0.1 M, reversible: yes
[14] = Equus caballus, pH 12.7, 22 °C, GdnHCl, Fluorescence, NaOH, reversible: yes
[15] = Homo sapiens, pH 7.5, Differential Scanning Fluorimetry, PBS, transition: 2, structure 1DXX
[16] = Homo sapiens, pH 7.5, CD, Tris-HCl, NaCl, structure 1DXX
[17] = Homo sapiens, pH 7, CD, Phosphate 100 mM, NaCl 150 mM, structure 1DXX
[18] = Homo sapiens, pH 2.4, CD, glycine hydrochloride 20 mM, NaCl 1 M, reversible: yes, structure 1TTG
[19] = Homo sapiens, pH 7, CD, sodium phosphate 20 mM, NaCl 0.1 M, reversible: yes, structure 1TTG
[20] = Homo sapiens, pH 7, CD, sodium phosphate 20 mM, NaCl 1 M, reversible: yes, structure 1TTG
[21] = Homo sapiens, pH 5, 25 °C, Urea, CD, sodium acetate 50 mM, structure 1TTG
[22] = Drosophila melanogaster, pH 7.5, 15 °C, GdnHCl, CD, Tris-HCl, NaCl 50 mM, structure 1SAN
[23] = Bos taurus, pH 8, DSC, HEPES 50mM, NaCl 150mM, structure 1IHG
[24] = Bos taurus, pH 8, DSC, HEPES 50mM, NaCl 150mM
[25] = Bos taurus, pH 8, 30 °C, GdnHCl, CD, borate 10 mM, structure 1BP2
[26] = Rattus norvegicus, pH 8, 25 °C, Urea, Fluorescence, Tris-HCl 50 mM, MgCl2 4 mM, transition: 3, reversible: yes, structure 1QM4
[27] = Escherichia coli, pH 7, CD, phosphate 50 mM, reversible: yes
[28] = Homo sapiens, pH 7.6, CD, Sodium phosphate 20 mM, NaCl 0.1 M, reversible: no, structure 1OWA
[29] = Homo sapiens, pH 5, 25 °C, Urea, Fluorescence, Sodium acetate 50 mM, reversible: yes, structure 1TEN
[30] = Homo sapiens, pH 7.3, 25 °C, GdnHCl, Fluorescence, Na2HPO4/NaH2PO4 20 mM, structure 1TIT
[31] = Homo sapiens, pH 7.4, 25 °C, GdnHCl, CD, PBS, structure 1TIT

Chain of Fibronectin D1544K, P02751 (P02751 whole entry D1544K): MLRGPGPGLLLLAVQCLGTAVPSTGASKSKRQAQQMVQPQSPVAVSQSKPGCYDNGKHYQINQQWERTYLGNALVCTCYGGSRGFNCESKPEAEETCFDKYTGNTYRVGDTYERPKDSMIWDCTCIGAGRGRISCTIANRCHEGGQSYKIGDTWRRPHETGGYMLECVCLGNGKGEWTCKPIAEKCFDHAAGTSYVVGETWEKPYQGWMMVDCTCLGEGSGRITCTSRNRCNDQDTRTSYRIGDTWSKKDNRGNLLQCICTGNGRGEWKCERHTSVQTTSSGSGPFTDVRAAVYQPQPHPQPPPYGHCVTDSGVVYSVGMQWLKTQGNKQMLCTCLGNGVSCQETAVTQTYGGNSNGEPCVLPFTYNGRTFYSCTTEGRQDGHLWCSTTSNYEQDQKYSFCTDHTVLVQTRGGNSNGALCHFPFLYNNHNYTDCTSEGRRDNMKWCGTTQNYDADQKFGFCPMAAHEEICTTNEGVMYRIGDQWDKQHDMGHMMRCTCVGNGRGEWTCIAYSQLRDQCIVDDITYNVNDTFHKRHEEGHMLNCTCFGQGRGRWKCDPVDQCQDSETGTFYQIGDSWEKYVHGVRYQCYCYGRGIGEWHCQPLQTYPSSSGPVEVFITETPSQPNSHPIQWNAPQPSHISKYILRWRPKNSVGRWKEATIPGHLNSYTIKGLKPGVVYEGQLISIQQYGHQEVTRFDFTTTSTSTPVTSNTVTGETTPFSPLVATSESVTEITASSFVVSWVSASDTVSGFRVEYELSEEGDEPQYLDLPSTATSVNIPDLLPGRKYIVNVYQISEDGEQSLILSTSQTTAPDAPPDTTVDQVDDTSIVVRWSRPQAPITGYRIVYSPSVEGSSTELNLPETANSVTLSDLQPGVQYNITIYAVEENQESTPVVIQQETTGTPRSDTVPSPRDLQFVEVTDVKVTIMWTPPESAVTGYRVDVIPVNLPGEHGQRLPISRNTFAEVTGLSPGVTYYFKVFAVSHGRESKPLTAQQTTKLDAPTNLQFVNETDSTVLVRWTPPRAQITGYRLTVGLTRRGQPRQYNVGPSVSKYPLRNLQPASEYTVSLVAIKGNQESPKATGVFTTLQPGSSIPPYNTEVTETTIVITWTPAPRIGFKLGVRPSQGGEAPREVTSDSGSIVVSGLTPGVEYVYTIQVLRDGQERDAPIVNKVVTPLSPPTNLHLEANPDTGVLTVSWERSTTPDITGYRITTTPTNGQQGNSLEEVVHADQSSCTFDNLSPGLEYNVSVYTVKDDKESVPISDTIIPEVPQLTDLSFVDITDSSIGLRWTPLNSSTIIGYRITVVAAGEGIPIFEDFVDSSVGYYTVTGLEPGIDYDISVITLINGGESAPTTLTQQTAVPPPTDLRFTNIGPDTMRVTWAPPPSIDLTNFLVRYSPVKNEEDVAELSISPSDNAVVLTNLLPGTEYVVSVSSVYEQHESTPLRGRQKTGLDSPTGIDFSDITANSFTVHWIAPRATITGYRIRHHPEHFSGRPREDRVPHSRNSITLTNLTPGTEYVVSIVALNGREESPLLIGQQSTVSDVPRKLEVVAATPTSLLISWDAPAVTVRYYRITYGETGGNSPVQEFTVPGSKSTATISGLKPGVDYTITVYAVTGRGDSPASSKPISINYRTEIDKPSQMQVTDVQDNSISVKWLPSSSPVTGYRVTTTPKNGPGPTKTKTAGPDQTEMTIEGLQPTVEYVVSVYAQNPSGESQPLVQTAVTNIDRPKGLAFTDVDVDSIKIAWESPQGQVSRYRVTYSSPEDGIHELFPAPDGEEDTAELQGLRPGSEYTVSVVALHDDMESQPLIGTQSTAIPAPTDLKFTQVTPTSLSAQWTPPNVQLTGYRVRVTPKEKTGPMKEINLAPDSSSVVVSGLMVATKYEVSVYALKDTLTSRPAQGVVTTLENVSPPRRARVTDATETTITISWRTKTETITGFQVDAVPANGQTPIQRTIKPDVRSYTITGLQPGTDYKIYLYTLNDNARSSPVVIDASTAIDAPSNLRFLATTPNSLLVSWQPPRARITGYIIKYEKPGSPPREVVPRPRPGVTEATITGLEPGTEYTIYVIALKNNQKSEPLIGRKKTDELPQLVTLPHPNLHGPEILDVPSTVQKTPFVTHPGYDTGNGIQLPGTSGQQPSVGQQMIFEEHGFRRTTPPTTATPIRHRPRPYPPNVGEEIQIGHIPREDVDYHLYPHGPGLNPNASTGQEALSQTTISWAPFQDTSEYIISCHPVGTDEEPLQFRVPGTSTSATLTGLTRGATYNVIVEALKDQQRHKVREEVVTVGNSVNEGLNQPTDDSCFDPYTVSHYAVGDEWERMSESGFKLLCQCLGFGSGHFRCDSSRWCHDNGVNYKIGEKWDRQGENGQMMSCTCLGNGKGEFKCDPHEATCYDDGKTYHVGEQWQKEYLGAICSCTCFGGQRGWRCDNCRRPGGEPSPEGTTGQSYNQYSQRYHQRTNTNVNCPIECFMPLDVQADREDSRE
Chain of Homeotic protein antennapedia R306E|L310R|H317R|F318R, P02833 R306E L310R H317R F318R (P02833 whole entry R306E/L310R/H317R/F318R): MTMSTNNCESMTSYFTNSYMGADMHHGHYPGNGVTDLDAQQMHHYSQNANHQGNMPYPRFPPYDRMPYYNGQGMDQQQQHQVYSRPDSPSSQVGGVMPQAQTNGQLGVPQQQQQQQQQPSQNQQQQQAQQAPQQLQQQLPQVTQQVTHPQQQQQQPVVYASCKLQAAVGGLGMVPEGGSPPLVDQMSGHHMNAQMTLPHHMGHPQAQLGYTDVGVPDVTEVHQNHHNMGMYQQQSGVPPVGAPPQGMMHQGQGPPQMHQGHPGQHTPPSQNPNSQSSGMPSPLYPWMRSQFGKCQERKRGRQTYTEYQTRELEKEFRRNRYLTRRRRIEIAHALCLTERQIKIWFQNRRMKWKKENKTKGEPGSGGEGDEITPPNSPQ
Chain of S-adenosylmethionine synthase isoform type-1 R265H, P13444 (P13444 whole entry R265H, canonical isoform): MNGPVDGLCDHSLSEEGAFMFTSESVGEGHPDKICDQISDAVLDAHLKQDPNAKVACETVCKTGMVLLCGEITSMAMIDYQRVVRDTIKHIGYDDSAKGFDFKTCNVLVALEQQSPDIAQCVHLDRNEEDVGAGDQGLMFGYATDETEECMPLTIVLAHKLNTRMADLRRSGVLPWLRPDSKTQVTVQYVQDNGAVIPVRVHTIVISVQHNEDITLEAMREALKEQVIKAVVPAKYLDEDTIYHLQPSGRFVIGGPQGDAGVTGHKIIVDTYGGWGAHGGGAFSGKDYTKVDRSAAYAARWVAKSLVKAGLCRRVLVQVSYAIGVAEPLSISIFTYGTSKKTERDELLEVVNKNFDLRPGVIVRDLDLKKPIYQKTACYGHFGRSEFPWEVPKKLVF
Chain of Peptidyl-prolyl cis-trans isomerase D K227A, P26882 (P26882 whole entry K227A): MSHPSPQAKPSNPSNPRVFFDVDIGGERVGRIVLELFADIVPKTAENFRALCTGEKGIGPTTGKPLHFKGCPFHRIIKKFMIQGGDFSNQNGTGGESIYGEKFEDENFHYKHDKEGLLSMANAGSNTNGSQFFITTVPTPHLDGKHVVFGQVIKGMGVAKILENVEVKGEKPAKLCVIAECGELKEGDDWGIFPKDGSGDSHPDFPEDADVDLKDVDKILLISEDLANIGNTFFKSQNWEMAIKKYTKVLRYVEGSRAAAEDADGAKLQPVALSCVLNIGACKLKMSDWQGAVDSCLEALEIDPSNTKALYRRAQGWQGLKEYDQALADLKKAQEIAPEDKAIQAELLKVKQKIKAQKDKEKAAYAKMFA
Chain of Cytochrome c wild type, P00004 (P00004 whole entry): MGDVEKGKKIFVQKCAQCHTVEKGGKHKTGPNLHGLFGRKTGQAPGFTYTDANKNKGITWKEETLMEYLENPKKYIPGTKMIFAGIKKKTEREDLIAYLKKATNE
Chain of Endo-1,4-beta-xylanase wild type, Q59962 (Q59962 entry or part of it): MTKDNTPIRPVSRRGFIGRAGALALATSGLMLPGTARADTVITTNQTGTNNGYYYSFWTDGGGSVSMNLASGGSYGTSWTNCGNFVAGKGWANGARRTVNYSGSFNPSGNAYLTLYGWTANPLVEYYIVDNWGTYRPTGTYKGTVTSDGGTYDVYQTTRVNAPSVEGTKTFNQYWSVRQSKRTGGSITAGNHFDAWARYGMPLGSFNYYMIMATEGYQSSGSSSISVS
Chain of Carbonic anhydrase 2 wild type, P00921 (P00921 whole entry): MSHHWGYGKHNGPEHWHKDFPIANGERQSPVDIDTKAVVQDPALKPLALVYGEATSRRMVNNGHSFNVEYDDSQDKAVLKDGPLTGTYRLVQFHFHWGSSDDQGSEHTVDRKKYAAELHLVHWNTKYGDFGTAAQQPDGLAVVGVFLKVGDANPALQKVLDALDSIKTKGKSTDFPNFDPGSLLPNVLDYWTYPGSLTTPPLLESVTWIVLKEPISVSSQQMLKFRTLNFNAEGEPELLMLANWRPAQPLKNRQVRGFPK
Chain of Peptidyl-prolyl cis-trans isomerase D K308A, P26882 (P26882 whole entry K308A): as the sequence (P26882 whole entry K227A) above, with A227K, K308A counted along it
Chain of Cold shock-like protein wild type, O54310 (O54310 whole entry): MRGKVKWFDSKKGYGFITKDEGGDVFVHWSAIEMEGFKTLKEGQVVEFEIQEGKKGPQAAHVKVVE
Chain of Cell division control protein 42 homolog T35A, P60953 (P60953 whole entry T35A): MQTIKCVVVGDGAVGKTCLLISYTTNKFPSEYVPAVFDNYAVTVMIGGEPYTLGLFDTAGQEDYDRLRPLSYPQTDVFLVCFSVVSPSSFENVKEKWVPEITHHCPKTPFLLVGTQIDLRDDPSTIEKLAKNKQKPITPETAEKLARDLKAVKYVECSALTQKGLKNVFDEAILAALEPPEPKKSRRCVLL

Carbonic anhydrase 2 wild type, P00921
Tm [1]: 39 °C | heat capacity change of unfolding [1]: 4 kcal/mol/K | Tm [2]: 48 °C | heat capacity change of unfolding [2]: 4 kcal/mol/K | Tm [3]: 56 °C | heat capacity change of unfolding [3]: 4 kcal/mol/K | Tm [4]: 62.5 °C | heat capacity change of unfolding [4]: 3.9 kcal/mol/K | Tm [5]: 64 °C | heat capacity change of unfolding [5]: 3.8 kcal/mol/K | unfolding enthalpy (calorimetric) [5]: 795 kJ/mol

Cell division control protein 42 homolog T35A, P60953
Tm [6]: 64.2 °C | change of melting temperature, mutant - wild type (higher = more stable) [6]: 0.7 °C

Cell division control protein 42 homolog wild type, P60953
Tm (Homo sapiens, DSC, 1 X - PBS, Mg2+ 0.5 mM): 63.5 °C

Cold shock-like protein wild type, O54310
denaturant m value [7]: 1.34 kcal/mol/M | unfolding free energy [7]: 14 kJ/mol

Creatine kinase B-type wild type, P00567
unfolding free energy (Oryctolagus cuniculus, pH 7.4, 22 °C, GdnHCl, CD, Sodium phosphate 100 mM): 29 kJ/mol | Tm (Oryctolagus cuniculus, pH 8, DSC, HEPES-NaOH 30 mM, reversible: no): 55.9 °C

Creatine kinase M-type wild type, P00563
Tm (Oryctolagus cuniculus, pH 8, DSC, Hepes-NaOH 30 mM, NaCl 0.1 M, reversible: No): 53.7 °C and 53.8 °C

Cytochrome c wild type, P00004
unfolding free energy (Equus caballus, pH 1.7, 20 °C, HCl, CD, HCl 9 mM): 13.8 kJ/mol | unfolding free energy (Equus caballus, pH 4.9, 10 °C, GdnHCl, Fluorescence, sodium acetate 0.2 M): 34.3 kJ/mol | denaturant m value [8]: 1.61 kcal/mol/M | denaturant midpoint (higher = more stable) [8]: 1.27 M | unfolding free energy [8]: 8.54 kJ/mol | unfolding free energy (Equus caballus, pH 6.5, 25 °C, GdnHCl, CD, HCl 0.1 M, reversible: yes): 53.1 kJ/mol | denaturant m value [9]: 3.8 kcal/mol/M and 3.2 kcal/mol/M | unfolding free energy [9]: 85.4 kJ/mol and 50.7 kJ/mol | denaturant m value [10]: 3.9 kcal/mol/M | denaturant midpoint (higher = more stable) [10]: 2.67 M | unfolding free energy [10]: 43.5 kJ/mol | unfolding free energy (Equus caballus, pH 7, 21 °C, GdnHCl, Absorbance, phosphate 10 mM): 35.6 kJ/mol | unfolding free energy (Equus caballus, pH 7, 21 °C, GdnHCl, CD, phosphate 10 mM): 35.1 kJ/mol | unfolding free energy (Equus caballus, pH 7, 21 °C, GdnHCl, Fluorescence, phosphate 10 mM): 31 kJ/mol | denaturant midpoint (higher = more stable) [11]: 5 M | unfolding free energy [11]: 75.3 kJ/mol | denaturant m value [12]: 4.1 kcal/mol/M and 2.5 kcal/mol/M | unfolding free energy [12]: 44.8 kJ/mol and 30.1 kJ/mol | unfolding free energy (Equus caballus, pH 7, 25 °C, GdnHCl, Absorbance, cacodylate 0.03 M, KCl 0.1 M, reversible: yes): 36.4 kJ/mol | denaturant m value [13]: 2 kcal/mol/M | denaturant midpoint (higher = more stable) [13]: 2.54 M | unfolding free energy [13]: 25.1 kJ/mol | unfolding free energy (Equus caballus, pH 7, 25 °C, SDS, CD, Phosphate 50 mM): 15 kJ/mol | denaturant midpoint (higher = more stable) [14]: 2.6 M | unfolding free energy [14]: 12.6 kJ/mol

Cytochrome c wild type, P62894
unfolding free energy (Bos taurus, pH 6.5, 25 °C, GdnHCl, CD, HCl 0.1 M, reversible: yes): 64.4 kJ/mol

Dystrophin, P11532 C10S C188S
Tm (Homo sapiens, pH 7, CD, NaH2PO4, NaCl, reversible: no, structure 1DXX): 61 °C | Tm (Homo sapiens, pH 7, Fluorescence, NaH2PO4, NaCl, reversible: no, structure 1DXX): 62.4 °C | unfolding free energy (Homo sapiens, pH 7, Urea, CD, NaH2PO4, NaCl, reversible: yes, structure 1DXX): 41 kJ/mol | unfolding free energy (Homo sapiens, pH 7, Urea, Fluorescence, NaH2PO4, NaCl, reversible: yes, structure 1DXX): 53.7 kJ/mol

Dystrophin, P11532 L172H
Tm [15]: 42.1 °C | change of melting temperature, mutant - wild type (higher = more stable) [15]: -1.28 °C

Dystrophin, P11532 L427P
Tm [16]: 50 °C | change of melting temperature, mutant - wild type (higher = more stable) [16]: -3.4 °C

Dystrophin, P11532 Y231N
Tm [17]: 43 °C | change of melting temperature, mutant - wild type (higher = more stable) [17]: -15 °C

Endo-1,4-beta-xylanase wild type, Q59962
unfolding enthalpy (calorimetric) (Streptomyces sp. S38, pH 7.5, DSC, MOPS 20 mM, NaCl 100 mM, reversible: No): 451 kJ/mol and 523 kJ/mol and 530 kJ/mol

Fibronectin D1544K, P02751
Tm (Homo sapiens, pH 2.4, CD, glycine hydrochloride 20 mM, NaCl 0.1 M, reversible: yes, structure 1TTG): 69 °C | Tm [18]: 77 °C | Tm [19]: 70 °C | Tm [20]: 78 °C

Fibronectin D1544N, P02751
Tm [18]: 82 °C | Tm [19]: 69 °C | Tm [20]: 80 °C

Fibronectin P1619A, P02751
ddG of mutation (higher = less stable) [21]: 1.76 kJ/mol

Fibronectin P1624A, P02751
ddG of mutation (higher = less stable) [21]: 0.879 kJ/mol

Fibronectin Y1605F, P02751
ddG of mutation (higher = less stable) (Homo sapiens, pH 5, 25 °C, Urea, Fluorescence, Sodium acetate 50 mM, reversible: yes, structure 1TTG): -8.49 kJ/mol

Homeotic protein antennapedia R306E|L310R|H317R|F318R, P02833 R306E L310R H317R F318R
denaturant m value [22]: 1.6 kcal/mol/M and 0.79 kcal/mol/M | denaturant midpoint (higher = more stable) [22]: 2.14 M and 1.32 M

MKLWFSTLKLKKAA [wild type]
Tm (Bacillus licheniformis, pH 5, Fluorescence, Sodium acetate 50 mM, reversible: no): 65 °C | Tm (Bacillus licheniformis, pH 6, Fluorescence, Sodium phosphate 50 mM): 64.7 °C | unfolding enthalpy (van 't Hoff) (Bacillus licheniformis, pH 7, Fluorescence, Sodium phosphate 50 mM, reversible: yes): 418 kJ/mol and 469 kJ/mol and 686 kJ/mol | Tm (Bacillus licheniformis, pH 9, Fluorescence, Sodium pyrophosphate 50 mM, reversible: yes): 56.5 °C

Peptidyl-prolyl cis-trans isomerase D K227A, P26882
Tm [23]: 45.2 °C | change of melting temperature, mutant - wild type (higher = more stable) [23]: 0.12 °C | unfolding enthalpy (calorimetric) [23]: 666 kJ/mol

Peptidyl-prolyl cis-trans isomerase D K308A, P26882
Tm [23]: 45 °C | change of melting temperature, mutant - wild type (higher = more stable) [23]: -0.07 °C | unfolding enthalpy (calorimetric) [23]: 647 kJ/mol

Peptidyl-prolyl cis-trans isomerase D wild type, P26882
Tm [24]: 45.1 °C | unfolding enthalpy (calorimetric) [24]: 689 kJ/mol

Phospholipase A2 H70A, P00593
ddG of mutation (higher = less stable) [25]: 13 kJ/mol | denaturant m value [25]: 1.02 kcal/mol/M | denaturant midpoint (higher = more stable) [25]: 6.3 M | unfolding free energy [25]: 26.8 kJ/mol

Phospholipase A2 H70Q, P00593
ddG of mutation (higher = less stable) [25]: 2.51 kJ/mol | denaturant m value [25]: 1.34 kcal/mol/M | denaturant midpoint (higher = more stable) [25]: 6.6 M | unfolding free energy [25]: 37.2 kJ/mol

Phospholipase A2, major isoenzyme N111D, P00592
unfolding free energy (Sus scrofa, pH 7, 20 °C, GdnHCl, Absorbance, Tris 5 mM, reversible: yes, structure 1P2P): 0.795 kJ/mol

Phospholipase A2, major isoenzyme wild type, P00592
unfolding free energy (Sus scrofa, pH 7, 20 °C, GdnHCl, Absorbance, Tris 5 mM, reversible: yes): 0 kJ/mol

S-adenosylmethionine synthase isoform type-1 R265H, P13444
denaturant m value [26]: 1.15 kcal/mol/M | denaturant midpoint (higher = more stable) [26]: 3.82 M | unfolding free energy [26]: 18.5 kJ/mol

S-adenosylmethionine synthase isoform type-1 wild type, P13444
unfolding free energy (Rattus norvegicus, pH 8, 25 °C, Urea, Fluorescence, Tris-HCl 50 mM, MgCl2 4 mM, transition: 3, reversible: yes): 25.6 kJ/mol and 18.5 kJ/mol

Soluble cytochrome b562 A62G, P0ABE7
ddG of mutation (higher = less stable) (Escherichia coli, pH 5, 25 °C, Urea, Fluorescence, NaAc 50 mM, structure 6BQG): 2.38 kJ/mol

Soluble cytochrome b562 wild type, P0ABE7
unfolding free energy (Escherichia coli, pH 7, 20 °C, Urea, CD, Potassium phosphate 50 mM, reversible: yes): 27.6 kJ/mol and 13.4 kJ/mol | heat capacity change of unfolding [27]: 2.4 kcal/mol/K and 1.1 kcal/mol/K | unfolding enthalpy (van 't Hoff) [27]: 393 kJ/mol and 222 kJ/mol

Spectrin alpha chain, erythrocytic 1, P02549 A2023V
Tm [28]: 60.5 °C | change of melting temperature, mutant - wild type (higher = more stable) [28]: -2 °C

Tenascin, P24821 Y869A
ddG of mutation (higher = less stable) [29]: -7.87 kJ/mol

Tenascin, P24821 Y869F
ddG of mutation (higher = less stable) [29]: -13.5 kJ/mol

Titin C12723S|C12739S, Q8WZ42 C12723S C12739S
ddG of mutation (higher = less stable) [30]: -13.4 kJ/mol | denaturant m value [30]: 2.8 kcal/mol/M

Titin F12749L, Q8WZ42
ddG of mutation (higher = less stable) [31]: 12.8 kJ/mol

Titin I12699A, Q8WZ42
ddG of mutation (higher = less stable) [31]: 12.1 kJ/mol

Titin L12717A, Q8WZ42
ddG of mutation (higher = less stable) [31]: 11.2 kJ/mol

Titin L12736A, Q8WZ42
ddG of mutation (higher = less stable) [31]: 22 kJ/mol
